Measurements: patent publication US20260250318A1, “COMPOSITIONS AND METHODS FOR CROSSING THE BLOOD BRAIN BARRIER” (VOYAGER THERAPEUTICS, INC., priority 2022, published 2026)
Where two headings read alike, the source gives them in different places.

Experiments:
ALPL on HeLa cells = biological target: T1, ALPL on HeLa cells (Homo sapiens, UniProt P05186); experiment: Transduction of HeLa cells after blocking with an anti-ALPL antibody; format: cell-based; details: for Transduction in Hela cells as measured by luciferase assay (RLU): 1E4 VG/cell
T1 construct: knockdown endogenous levels of ALPL in HeLa cells; endogenous in cells; host or cells: HeLa
T1 sequence (P05186 18-501): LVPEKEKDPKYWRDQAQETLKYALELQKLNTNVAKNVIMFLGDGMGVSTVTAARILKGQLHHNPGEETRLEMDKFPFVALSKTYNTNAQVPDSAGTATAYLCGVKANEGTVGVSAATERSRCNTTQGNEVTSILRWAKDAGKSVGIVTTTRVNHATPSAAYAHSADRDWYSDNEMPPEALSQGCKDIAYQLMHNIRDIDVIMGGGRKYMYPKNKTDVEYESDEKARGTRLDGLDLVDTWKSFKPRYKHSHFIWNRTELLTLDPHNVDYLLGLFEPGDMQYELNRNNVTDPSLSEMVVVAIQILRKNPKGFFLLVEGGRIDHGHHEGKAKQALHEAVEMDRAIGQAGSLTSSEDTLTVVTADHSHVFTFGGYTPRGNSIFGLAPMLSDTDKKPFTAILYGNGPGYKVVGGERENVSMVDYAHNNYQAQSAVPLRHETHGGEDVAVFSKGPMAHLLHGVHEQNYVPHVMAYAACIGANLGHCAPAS
Experimental: Following incubation, the cells were transduced with 1E4 VG/cell of AAV particles comprising the TTM-002 capsid variant or an AAV9 control expressing a GFP-luciferase payload. After a 4 hour incubation period the AAV and media were removed and replaced with fresh media and luciferase activity was measured (RLU) 24 hours post transduction.

brain [1] = experiment: Second cross-species screen, synthetic library passage 3 in C57Bl/6 mice; format: in vivo; details: third passage (P3)
Experimental: There were approximately 500 variants in this synthetic library. This synthetic library was then injected back into both strains of mice (C57Bl/6 and BALB/c; passage 3). RNA was recovered from the mouse brains, RT-PCR amplification was performed, and fold-enrichment relative to wild-type AAV9 was calculated by NGS analysis, which is provided in Table 11.

[2] = system: HEK 293T cells transfected with pCMV6 negative control; format: cell-based; details: for Luciferase Activity (fold change relative to pCMV6 transfected cells): pCMV6 transfected cells (negative control, reference); for Luciferase Activity (RLU): Table 30, pCMV6 transfected cells
Experimental: Briefly, a transduction assay was performed in that HEK 293T cells were transfected via calcium phosphate transfection with a plasmid expressing ALPL, an AAVR positive control, or a pCMV6 negative control (250 ng or 500 ng of plasmid). AAVR is a universal AAV entry factor involved in AAV transduction. […] At 24-hours post-transduction, GFP expression and luciferase activity were measured to quantify and observe AAV cellular transduction. […] The TTM-002, TTM-006, TTM-018, and TTM-019 capsid variants all comprised the SPH motif immediately subsequent to position 455, numbered relative to SEQ ID NO: 138 and a positive residue in one of the next three residues subsequent to the SPH motif.
Three isoforms of ALPL exist, isoform 1 (Alkaline phosphatase, placental-like 2 (ALPPL2), NM_031313, which is incorporated by reference herein), isoform 2 (alkaline phosphatase, placental (ALPP), NM_001632, which is incorporated by reference herein), and isoform 3 (alkaline phosphatase, intestinal (ALPLI), NM_001631, which is incorporated by reference herein), that can also be expressed on cell surfaces via a GPI-anchor. […] The transduction assay described above was repeated with the three isoforms. HEK 293T cells were transfected via calcium phosphate transfection with a plasmid expressing ALPL, isoform 1 of ALPL, isoform 2 of ALPL, isoform 3 of ALPL, an AAVR positive control, or a pCMV6 negative control. At 24 hours post-transfection, the HEK 293T cells expressing the ALPL receptor were transduced with an AAV particle comprising the TTM-001 capsid variant or the TTM-002 capsid variant, expressing a Luc2-GFP payload. At 24-hours post-transduction, luciferase activity (RLU) was measured to quantify AAV cellular transduction.
To determine if deletion of the endoplasmic reticulum (ER) localization signal of ALPL affected transduction of the TTM-001 and TTM-002 capsid variants, HEK 293T cells were transfected via calcium phosphate transfection with a plasmid expressing ALPL, ALP with a deletion of the ER localization signal (ALPL transcript variant 2 that lacks the ER signal (NM_001127501, which is incorporated by reference herein)), or a pCMV6 negative control. At 24 hours post-transfection, the HEK 293T cells expressing the ALPL receptor were transduced with an AAV particle comprising the TTM-001 capsid variant, the TTM-002 capsid variant, or an AAV9 capsid control, expressing a GFP payload. At 24-hours post-transduction, luciferase activity (RLU) was measured to quantify AAV cellular transduction. Data was normalized to fold change in luciferase activity (RLU) compared to the pCMV6 control.
To determine if the TTM-001 and TTM-002 capsid variants could bind to both the human ALPL protein (NM_000478.6, which is incorporated by reference herein) and the mouse ALPL ortholog (NM_001287172.1, which is incorporated by reference herein), HEK 293T cells were transfected via calcium phosphate transfection with a plasmid expressing human ALPL, the murine ortholog of ALPL, or a pCMV6 negative control. At 24 hours post-transfection, the HEK 293T cells expressing the ALPL receptor were transduced with an AAV particle comprising the TTM-001 capsid variant, the TTM-002 capsid variant, or an AAV9 control capsid protein, expressing a Luc2-GFP payload. At 24-hours post-transduction, luciferase activity (RLU) was measured to quantify AAV cellular transduction.
AAV entry factor involved in AAV transduction), or a pCMV6 negative control.

brain [3] = experiment: NGS fold enrichment of synthetic library (passage 3) in BALB/c mice, first cross-species screen; format: in vivo; details: synthetic library passage 3, intravenous, RNA NGS, brain of BALB/c mice, relative to wild-type AAV9
Summary of the method: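 Fold enrichment versus wild-type AAV9 was derived by NGS of RT-PCR-amplified RNA from nervous tissue, collected e.g. 28 days after IV dosing […]. The library (passage 3) was given to two NHPs aged 2-4 years and to 6-8-week BALB/c and C57Bl/6 mice (n=3 each).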

[4] = IgG isotype control 3.125 μg/mL
[5] = Table 33, Cells transfected with pCMV6 (reference)
[6] = Table 34, Cells transfected with pCMV6 (reference)

## AAV9: wild-type AAV9 control capsid [reference compound]
ALPL on HeLa cells; Anti-ALPL antibody 0 μg/mL
  Transduction in Hela cells as measured by luciferase assay (RLU): 530.67 RLU
ALPL on HeLa cells; Anti-ALPL antibody 3.125 μg/mL
  Transduction in Hela cells as measured by luciferase assay (RLU): 527.33 RLU
ALPL on HeLa cells; Anti-ALPL antibody 6.25 μg/mL
  Transduction in Hela cells as measured by luciferase assay (RLU): 451.67 RLU
ALPL on HeLa cells; Anti-ALPL antibody 12.5 μg/mL
  Transduction in Hela cells as measured by luciferase assay (RLU): 417.33 RLU
ALPL on HeLa cells; IgG isotype control 0 μg/mL
  Transduction in Hela cells as measured by luciferase assay (RLU): 433.33 RLU
ALPL on HeLa cells; [4]
  Transduction in Hela cells as measured by luciferase assay (RLU): 457.67 RLU
ALPL on HeLa cells; IgG isotype control 6.25 μg/mL
  Transduction in Hela cells as measured by luciferase assay (RLU): 516.33 RLU
ALPL on HeLa cells; IgG isotype control 12.5 μg/mL
  Transduction in Hela cells as measured by luciferase assay (RLU): 551.33 RLU

B1: TTM-001: AAV9 capsid variant comprising SPHSKA (SEQ ID NO: 941) in loop IV (protein)
chain 1: MAADGYLPDWLEDNLSEGIREWWALKPGAPQPKANQQHQDNARGLVLPGYKYLGPGNGLDKGEPVNAADAAALEHDKAYDQQLKAGDNPYLKYNHADAEFQERLKEDTSFGGNLGRAVFQAKKRLLEPLGLVEEAAKTAPGKKRPVEQSPQEPDSSAGIGKSGAQPAKKRLNFGQTGDTESVPDPQPIGEPPAAPSGVGSLTMASGGGAPVADNNEGADGVGSSSGNWHCDSQWLGDRVITTSTRTWALPTYNNHLYKQISNSTSGGSSNDNAYFGYSTPWGYFDFNRFHCHFSPRDWQRLINNNWGFRPKRLNFKLFNIQVKEVTDNNGVKTIANNLTSTVQVFTDSDYQLPYVLGSAHEGCLPPFPADVFMIPQYGYLTLNDGSQAVGRSSFYCLEYFPSQMLRTGNNFQFSYEFENVPFHSSYAHSQSLDRLMNPLIDQYLYYLSKTINGSGSPHSKAQNQQTLKFSVAGPSNMAVQGRNYIPGPSYRQQRVSTTVTQNNNSEFAWPGASSWALNGRNSLMNPGPAMASHKEGEDRFFPLSGSLIFGKQGTGRDNVDADKVMITNEEEIKTTNPVATESYGQVATNHQSAQAQAQTGWVQNQGILPGMVWQDRDVYLQGPIWAKIPHTDGNFHPSPLMGGFGMKHPPPQILIKNTPVPADPPTAFNKDKLNSFITQYSTGQVSVEIEWELQKENSKRWNPEIQYTSNYYKSNNVEFAVNTEGVYSEPRPIGTRYLTRNL
chain 2: GSGSPHSKAQNQQT
Brain [1]
  Fold enrichment over AAV9 in C57Bl/6: 65.853 fold
[2]; Table 27
  Luciferase Activity (fold change relative to pCMV6 transfected cells): 1 fold
[2]
  Luciferase Activity (RLU): 5,212 RLU
[2]; [5]
  Fold change in luciferase activity relative to the pCMV6 control cells: 1 fold
[2]; [6]
  Fold change in luciferase activity relative to the pCMV6 control cells: 1 fold
Brain [3]
  Fold enrichment over AAV9 in the brain of Mice (BALB/c): 41.304 fold

B2: TTM-002: AAV9 capsid variant comprising HDSPHK (SEQ ID NO: 2) in loop IV (protein)
chain 1: MAADGYLPDWLEDNLSEGIREWWALKPGAPQPKANQQHQDNARGLVLPGYKYLGPGNGLDKGEPVNAADAAALEHDKAYDQQLKAGDNPYLKYNHADAEFQERLKEDTSFGGNLGRAVFQAKKRLLEPLGLVEEAAKTAPGKKRPVEQSPQEPDSSAGIGKSGAQPAKKRLNFGQTGDTESVPDPQPIGEPPAAPSGVGSLTMASGGGAPVADNNEGADGVGSSSGNWHCDSQWLGDRVITTSTRTWALPTYNNHLYKQISNSTSGGSSNDNAYFGYSTPWGYFDFNRFHCHFSPRDWQRLINNNWGFRPKRLNFKLFNIQVKEVTDNNGVKTIANNLTSTVQVFTDSDYQLPYVLGSAHEGCLPPFPADVFMIPQYGYLTLNDGSQAVGRSSFYCLEYFPSQMLRTGNNFQFSYEFENVPFHSSYAHSQSLDRLMNPLIDQYLYYLSKTINGHDSPHKSGQNQQTLKFSVAGPSNMAVQGRNYIPGPSYRQQRVSTTVTQNNNSEFAWPGASSWALNGRNSLMNPGPAMASHKEGEDRFFPLSGSLIFGKQGTGRDNVDADKVMITNEEEIKTTNPVATESYGQVATNHQSAQAQAQTGWVQNQGILPGMVWQDRDVYLQGPIWAKIPHTDGNFHPSPLMGGFGMKHPPPQILIKNTPVPADPPTAFNKDKLNSFITQYSTGQVSVEIEWELQKENSKRWNPEIQYTSNYYKSNNVEFAVNTEGVYSEPRPIGTRYLTRNL
chain 2: GHDSPHKSGQNQQT
Brain [1]
  Fold enrichment over AAV9 in C57Bl/6: 51.125 fold
ALPL on HeLa cells; Anti-ALPL antibody 0 μg/mL
  Transduction in Hela cells as measured by luciferase assay (RLU): 4701 RLU
ALPL on HeLa cells; Anti-ALPL antibody 3.125 μg/mL
  Transduction in Hela cells as measured by luciferase assay (RLU): 5042.67 RLU
ALPL on HeLa cells; Anti-ALPL antibody 6.25 μg/mL
  Transduction in Hela cells as measured by luciferase assay (RLU): 5220 RLU
ALPL on HeLa cells; Anti-ALPL antibody 12.5 μg/mL
  Transduction in Hela cells as measured by luciferase assay (RLU): 5556.67 RLU
ALPL on HeLa cells; HeLa, 0-12.5 μg/mL antibody
  transduction in the presence of anti-ALPL antibody vs isotype control: decreased TTM-002 transduction in a dose dependent manner
ALPL on HeLa cells; IgG isotype control 0 μg/mL
  Transduction in Hela cells as measured by luciferase assay (RLU): 4113.33 RLU
ALPL on HeLa cells; [4]
  Transduction in Hela cells as measured by luciferase assay (RLU): 527.33 RLU
ALPL on HeLa cells; IgG isotype control 6.25 μg/mL
  Transduction in Hela cells as measured by luciferase assay (RLU): 186.67 RLU
ALPL on HeLa cells; IgG isotype control 12.5 μg/mL
  Transduction in Hela cells as measured by luciferase assay (RLU): 136 RLU
[2]; Table 27
  Luciferase Activity (fold change relative to pCMV6 transfected cells): 1 fold
[2]; Table 28
  Luciferase Activity (fold change relative to pCMV6 transfected cells): 1 fold
[2]
  Luciferase Activity (RLU): 2,894 RLU
[2]; [5]
  Fold change in luciferase activity relative to the pCMV6 control cells: 1 fold
[2]; [6]
  Fold change in luciferase activity relative to the pCMV6 control cells: 1 fold
[2]; Table 35, Receptor pCMV6 (reference)
  Fold change in luciferase activity relative to the pCMV6 control cells: 1.0 fold
Brain [3]
  Fold enrichment over AAV9 in the brain of Mice (BALB/c): 49.760 fold
